Laboratory results taken from the supplement of paper PMC10567573.

B1: LOXL2 (parent)
chain: HISSCKLGPQVSLDPMKNVTCENG

Variants of: B1
Assay: protein stability index of a GFP-peptide fusion (GPS, HEK-293T) (PSI 1-6); higher = more stable
Conditions: c terminus: a fixed tail appended
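Further: lentivirally expressed fusions sorted by FACS into six bins by GFP to DsRed ratio, PSI derived from sequencing read proportions per bin multiplied by bin number.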

In order of rising protein stability index:
1. HISSCKLWPQVSLDPMKNVTCENG  1.87
2. HISSCKWGPQVSLDPMKNVTCENG  2.28
3. HISSCKLGPQVWLDPMKNVTCENG  2.47
4. HISSCKLGPQVSLYPMKNVTCENG  2.8
5. HISSCKLFPQVSLDPMKNVTCENG  3.04
6. HISSCKLCPQVSLDPMKNVTCENG  3.15
7. HISSCKLGPQVSLLPMKNVTCENG  3.22
8. HISSCKLGPQVYLDPMKNVTCENG  3.24
9. HISSCKLGPQGSLDPMKNVTCENG  3.25
10. HISSCKLGPQVFLDPMKNVTCENG  3.27
11. HISSCKLRPQVSLDPMKNVTCENG  3.29
12. HISSCKLGPQVLLDPMKNVTCENG  3.31
13. HISSCKLGPQVSLRPMKNVTCENG  3.33
14. HISSCKLGPQVSLNPMKNVTCENG  3.33
15. HISSCKLYPQVSLDPMKNVTCENG  3.4
16. HISSCKLGPQVCLDPMKNVTCENG  3.43
17. HISSCKLGPQVSLIPMKNVTCENG  3.44
18. HISSCKLGPQWSLDPMKNVTCENG  3.44
19. HISSCKLGPQVSLGPMKNVTCENG  3.45
20. HISSCKLGPQKSLDPMKNVTCENG  3.48
21. HISSCKLGPQVRLDPMKNVTCENG  3.48
22. HISSCKLGPQFSLDPMKNVTCENG  3.56
23. HISSCKLGPQVMLDPMKNVTCENG  3.57
24. HISSCKLGPQVSLQPMKNVTCENG  3.58
25. HISSCKCGPQVSLDPMKNVTCENG  3.59
26. HISSCKLGPQVSLHPMKNVTCENG  3.61
27. HISSCKLKPQVSLDPMKNVTCENG  3.61
28. HISSCKLVPQVSLDPMKNVTCENG  3.62
29. HISSCKLHPQVSLDPMKNVTCENG  3.63
30. HISSCKLSPQVSLDPMKNVTCENG  3.66
31. HISSCKLGPQYSLDPMKNVTCENG  3.67
32. HISSCKLGPQVSLDPIKNVTCENG  3.68
33. HISSCKLGPQVILDPMKNVTCENG  3.68
34. HISSCKLQPQVSLDPMKNVTCENG  3.7
35. HISSCKLGPQLSLDPMKNVTCENG  3.72
36. HISSCKLGPQISLDPMKNVTCENG  3.72
37. HISSCKLGPQVDLDPMKNVTCENG  3.72
38. HISSCKYGPQVSLDPMKNVTCENG  3.74
39. HISSCKLGPQVSLDPFKNVTCENG  3.74
40. HISSCKLAPQVSLDPMKNVTCENG  3.77
41. HISSCKLIPQVSLDPMKNVTCENG  3.86
42. HISSCKLGPQVKLDPMKNVTCENG  3.9
43. HISSCKLGPQVNLDPMKNVTCENG  3.9
44. HISSCKLGPQVVLDPMKNVTCENG  3.92
45. HISSCKLGPQVGLDPMKNVTCENG  3.93
46. HISSCKLGPQVSLDPCKNVTCENG  3.94
47. HISSCKLGPQRSLDPMKNVTCENG  3.94
48. HISSCKLMPQVSLDPMKNVTCENG  3.95
49. HISSCKSGPQVSLDPMKNVTCENG  3.96
50. HISSCKLGPQVHLDPMKNVTCENG  4
51. HISSCKLPPQVSLDPMKNVTCENG  4.01
52. HISSCKLLPQVSLDPMKNVTCENG  4.02
53. HISSCKLGPQASLDPMKNVTCENG  4.03
54. HISSCKLNPQVSLDPMKNVTCENG  4.07
55. HISSCKLGPQTSLDPMKNVTCENG  4.07
56. HISSCKLGPQSSLDPMKNVTCENG  4.09
57. HISSCKFGPQVSLDPMKNVTCENG  4.1
58. HISSCKLGPQVSLDPHKNVTCENG  4.11
59. HISSCKLGPQVSLEPMKNVTCENG  4.12
60. HISSCKDGPQVSLDPMKNVTCENG  4.15
61. HISSCKRGPQVSLDPMKNVTCENG  4.15
62. HISSCKLGPQVSLDPAKNVTCENG  4.15
63. HISSCKLGPQMSLDPMKNVTCENG  4.15
64. HISSCKLGPQVPLDPMKNVTCENG  4.18
65. HISSCKVGPQVSLDPMKNVTCENG  4.19
66. HISSCKHGPQVSLDPMKNVTCENG  4.19
67. HISSCKLGPQVSLDPGKNVTCENG  4.22
68. HISSCKLGPQCSLDPMKNVTCENG  4.27
69. HISSCKLGPQVALDPMKNVTCENG  4.3
70. HISSCKMGPQVSLDPMKNVTCENG  4.31
71. HISSCKQGPQVSLDPMKNVTCENG  4.32
72. HISSCKKGPQVSLDPMKNVTCENG  4.33
73. HISSCKLGPQNSLDPMKNVTCENG  4.33
74. HISSCKLDPQVSLDPMKNVTCENG  4.34
75. HISSCKLGPQPSLDPMKNVTCENG  4.34
76. HISSCKLGPQVTLDPMKNVTCENG  4.34
77. HISSCKLGPQDSLDPMKNVTCENG  4.35
78. HISSCKNGPQVSLDPMKNVTCENG  4.37
79. HISSCKLGPQQSLDPMKNVTCENG  4.4
80. HISSCKLGPQHSLDPMKNVTCENG  4.41
81. HISSCKLGPQVQLDPMKNVTCENG  4.44
82. HISSCKLTPQVSLDPMKNVTCENG  4.45
83. HISSCKLGPQVELDPMKNVTCENG  4.48
84. HISSCKLGPQVSLDPKKNVTCENG  4.5
85. HISSCKPGPQVSLDPMKNVTCENG  4.51
86. HISSCKLEPQVSLDPMKNVTCENG  4.53
87. HISSCKTGPQVSLDPMKNVTCENG  4.54
88. HISSCKIGPQVSLDPMKNVTCENG  4.57
89. HISSCKLGPQESLDPMKNVTCENG  4.58
90. HISSCKAGPQVSLDPMKNVTCENG  4.62
91. HISSCKLGPQVSLDPDKNVTCENG  4.75
92. HISSCKGGPQVSLDPMKNVTCENG  4.76
93. HISSCKEGPQVSLDPMKNVTCENG  4.79
94. HISSCKLGPQVSLDPEKNVTCENG  5.1
